Assays:
porcine uteroferrin = porcine uteroferrin (UniProt P09889)
UniProt P09889, sequence (P09889 22-340): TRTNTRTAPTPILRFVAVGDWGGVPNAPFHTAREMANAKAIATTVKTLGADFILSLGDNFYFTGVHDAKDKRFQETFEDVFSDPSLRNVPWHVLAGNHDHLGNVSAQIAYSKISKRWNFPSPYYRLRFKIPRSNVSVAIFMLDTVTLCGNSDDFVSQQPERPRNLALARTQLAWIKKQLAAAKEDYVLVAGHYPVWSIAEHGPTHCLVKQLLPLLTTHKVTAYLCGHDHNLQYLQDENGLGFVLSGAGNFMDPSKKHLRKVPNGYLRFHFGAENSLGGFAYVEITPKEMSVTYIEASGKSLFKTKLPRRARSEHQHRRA

bovine UDP-N-acetylglucosamine: lysosomal enzyme N-Acetylglucosamine-1-phosphotransferase
Km as acceptor for transfer of GlcNAc-1-P (RNAse B): the Km was not reached at the solubility limit of the protein (at 600 µM) | Km as acceptor for transfer of GlcNAc-1-P (cathepsin D): Kms below 20 µM | Km as acceptor for transfer of GlcNAc-1-P (porcine uteroferrin): Kms below 20 µM

From patent publication US6534300
